Assay results from patent US6335013B1, “Methods and materials relating to CD39-like polypeptides” (Hyseq, Inc., priority 1999, dated 2002).

Legend:
COS-7 cells [1] = assay: Brefeldin A treatment of COS-7 cells transfected with CD39-L2, secretion; format: cell-based; settings: transfected COS-7 cells, 8 hours, varying dosages
COS-7 cells [2] = assay: Brefeldin A treatment of COS-7 cells transfected with CD39-L4-6His, secretion; format: cell-based; settings: transfected COS-7 cells, 8 hours, increasing dosages
[3] = ADPase activity of CD39-L4 forms (insect-expressed, dimer, deglycosylated); format: biochemical
[4] = Kinetic characteristics of CD39L4 ADP hydrolysis; format: biochemical
[5] = ADPase activity of CD39-L4 from transfected COS-7 cells, stimulation by divalent cations; format: biochemical; settings: 1 mM ADP
[6] = Assay for ATPase activity, [33P]Pi released from [γ33P]ATP; format: biochemical; settings: transfected COS-7 cells, 10 μCi [γ33P]ATP, one hour, 37° C.
[7] = ADPase and ATPase activity of CD39L4 wild type and ACR mutants, inorganic phosphate released; format: biochemical
[8] = membrane bound or engineered soluble form; cited from earlier work

For `C[C@H]1CCC/C=C/[C@@H]2C[C@H](O)C[C@H]2[C@H](O)/C=C/C(=O)O1` [brefeldin A], which “effect on recombinant CD39-L2 in the media” value (COS-7 cells [1]) is on record?
The value was “decreased in a brefeldin A dose dependent manner”.

And the “effect on secretion of CD39-L4-6His” value (COS-7 cells [2])?
Its value is “blocked secretion of CD39-L4-6His”.

B1: CD39L4 dimer: dimeric form of secreted CD39L4 (protein, UniProt O75356 25-428, looked up)
Nucleoside diphosphate …: NQQTWFEGIFLSSMCPINVSASTLYGIMFDAGSTGTRIHVYTFVQKMPGQLPILEGEVFDSVKPGLSAFVDQPKQGAETVQGLLEVAKDSIPRSHWKKTPVVLKATAGLRLLPEHKAKALLFEVKEIFRKSPFLVPKGSVSIMDGSDEGILAWVTVNFLTGQLHGHRQETVGTLDLGGASTQITFLPQFEKTLEQTPRGYLTSFEMFNSTYKLYTHSYLGFGLKAARLATLGALETEGTDGHTFRSACLPRWLEAEWIFGGVKYQYGGNQEGEVGFEPCYAEVLRVVRGKLHQPEEVQRGSFYAFSYYYDRAVDTDMIDYEKGGILKVEDFERKAREVCDNLENFTSGSPFLCMDLSYITALLKDGFGFADSTVLQLTKKVNNIETGWALGATFHLLQSLGISH
modifications: dimer
With B1 as the molecule, how does the “enzymatic (ADPase) activity of the dimer” value ([3]; monomer and dimer enriched sucrose density gradient fractions) read?
The value was “does not possess any significant level of enzymatic activity”.

B2: CD39-L4: novel human CD39-like protein, 428 amino acids, amino acid sequence SEQ ID NO: 3; soluble apyrase specific for NDPs (protein)
chain: MATSWGTVFFMLVVSCVCSAVSHRNQQTWFEGIFLSSMCPINVSASTLYGIMFDAGSTGTRIHVYTFVQKMPGQLPILEGEVFDSVKPGLSAFVDQPKQGAETVQGLLEVAKDSIPRSHWKKTPVVLKATAGLRLLPEHKAKALLFEVKEIFRKSPFLVPKGSVSIMDGSDEGILAWVTVNFLTGQLHGHRQETVGTLDLGGASTQITFLPQFEKTLEQTPRGYLTSFEMFNSTYKLYTHSYLGFGLKAARLATLGALETEGTDGHTFRSACLPRWLEAEWIFGGVKYQYGGNQEGEVGFEPCYAEVLRVVRGKLHQPEEVQRGSFYAFSYYYDRAVDTDMIDYEKGGILKVEDFERKAREVCDNLENFTSGSPFLCMDLSYITALLKDGFGFADSTVLQLTKKVNNIETGWALGATFHLLQSLGISH
What does the source list for B2?
cooperativity of ADPase activity, in words [4]: does not appear to possess cooperativity; Vmax of ADP hydrolysis ([4]; 15 mM CaCl2, ADP 0.75-18 mM, 37° C., 15 min, 60 ng protein per reaction, Michaelis-Menten fit): 1191 pmol/min; Km ([4]; 15 mM CaCl2, ADP 0.75-18 mM, 37° C., 15 min, Michaelis-Menten fit): 12.7 mM; turnover number, kcat, ADP as substrate ([4]; assuming 60 ng protein and 46000 g/mol): 15.2 s⁻¹; fold increase in ADPase activity over cells transfected with vector alone ([5]; CD39-L4-6His from COS-7 medium on Nickel-NTA resin, 37° C., 30 min, no added cation): 2.3 fold; fold increase in ADPase activity when Ca2+ added ([5]; Ca2+ added): 3.6 fold; fold increase in ADPase activity when Mg2+ added ([5]; Mg2+ added): 6 fold; increase in ATPase activity over cells transfected with vector alone [6]: at least a four fold increase in activity; hydrolysis of ADP, in words ([7]; ADP as substrate): hydrolyze ADP; hydrolysis of ATP, in words ([7]; ATP as substrate): neither the CD39L4 nor the CD39L4 mutant, ACR III, catalyzed hydrolysis

B3: CD39-L66: isoform (splice variant) of CD39-L4, amino acid sequence SEQ ID NO: 25 (protein)
chain: MATSWGTVFFMLVVSCVCSAVSHRNQQTWFEGIFLSSMCPINVSASTLYGIMFDAGSTGTRIHVYTFVQKMPGQLPILEGEVFDSVKPGLSAFVDQPKQGAETVQGLLEVAKDSIPRSHWKKTPVVLKATAGLRLLPEHKAKALLFEVKEIFRKSPFLVPKGSVSIMDGSDEGILAWVTVNFLTGQLHGHRQETVGTLDLGGASTQITFLPQFEKTLEQTPRGYLTSFEMFNSTYKLYTHSYLGFGLKAARLATLGALETEGTDGHTFRSACLPRWLEAEWIFGGVKYQYGGNQEGEVGFEPCYAEVLRVVRGKLHQPEEVQRGSFYAFSYYYDRAVDTDMIDYEKGGILKVEDFERKAREVCDNLENFTSGSPFLCMDLSYITALLKDGFGFADSTVLQAAVLR
Which “increase in ATPase activity over cells transfected with vector alone” value [6] does the source give for B3 here?
The value was “at least a four fold increase in activity”.

B4: CD39: 510-amino acid cell-surface ecto-apyrase (ATPDase) (protein, UniProt P49961 1-510, looked up)
Ectonucleoside triphosphate …: MEDTKESNVKTFCSKNILAILGFSSIIAVIALLAVGLTQNKALPENVKYGIVLDAGSSHTSLYIYKWPAEKENDTGVVHQVEECRVKGPGISKFVQKVNEIGIYLTDCMERAREVIPRSQHQETPVYLGATAGMRLLRMESEELADRVLDVVERSLSNYPFDFQGARIITGQEEGAYGWITINYLLGKFSQKTRWFSIVPYETNNQETFGALDLGGASTQVTFVPQNQTIESPDNALQFRLYGKDYNVYTHSFLCYGKDQALWQKLAKDIQVASNEILRDPCFHPGYKKVVNVSDLYKTPCTKRFEMTLPFQQFEIQGIGNYQQCHQSILELFNTSYCPYSQCAFNGIFLPPLQGDFGAFSAFYFVMKFLNLTSEKVSQEKVTEMMKKFCAQPWEEIKTSYAGVKEKYLSEYCFSGTYILSLLLQGYHFTADSWEHIHFIGKIQGSDAGWTLGYMLNLTNMIPAEQPLSTPLSHSTYVFLMVLFSLVLFTVAIIGLLIFHKPSYFWKDMV
Which “hydrolysis of ATP and ADP, in words” value [8] does the source give for B4 here?
Its value is “able to hydrolyze both ATP and ADP substrates efficiently”.

B5: deglycosylated CD39-L4: CD39-L4 from tunicamycin treated COS-7 cells (protein, UniProt O75356 25-428, looked up)
Nucleoside diphosphate …: NQQTWFEGIFLSSMCPINVSASTLYGIMFDAGSTGTRIHVYTFVQKMPGQLPILEGEVFDSVKPGLSAFVDQPKQGAETVQGLLEVAKDSIPRSHWKKTPVVLKATAGLRLLPEHKAKALLFEVKEIFRKSPFLVPKGSVSIMDGSDEGILAWVTVNFLTGQLHGHRQETVGTLDLGGASTQITFLPQFEKTLEQTPRGYLTSFEMFNSTYKLYTHSYLGFGLKAARLATLGALETEGTDGHTFRSACLPRWLEAEWIFGGVKYQYGGNQEGEVGFEPCYAEVLRVVRGKLHQPEEVQRGSFYAFSYYYDRAVDTDMIDYEKGGILKVEDFERKAREVCDNLENFTSGSPFLCMDLSYITALLKDGFGFADSTVLQLTKKVNNIETGWALGATFHLLQSLGISH
modifications: deglycosylated (tunicamycin)
notes: CD39-L4 from tunicamycin treated COS-7 cells
With B5 as the molecule, how does the “ADPase activity of deglycosylated protein” value ([3]; from tunicamycin (5 μg/ml) treated COS-7 cells) read?
Its value is “comparable to an equal amount of the glycosylated protein”.
